# Experimental data reported in the domain aggregation screens of Martell et al. (2025).
# Assay: soluble fraction after stress (log2 fold change); higher = more stays soluble; pooled small domains, quantitative proteomics
# Conditions: stress: pH 4
# Procedure, shortened: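 After pH 4 stress, pooled custom libraries of small protein domains were quantified with high-throughput quantitative proteomics. Aggregation propensity is taken from the fold change in each domain's soluble amount following the acid stress. The scale is log2, where higher values mean more stayed soluble.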
sequence,measurement,value
HMEDEVYFVPSPASRFNPWIAALASRRVPYRVEYDGAERRIAVPAGYAEKAGEELAAYERINHAWPR,soluble fraction (log2),-0.111
HMEDFDLSDTERKIIAQIGHGYSNKEIAQKLGFSEGTIRNYLSVILDKLDLRDRTQLAIWYLSR,soluble fraction (log2),-0.229
HMEDIAAIAQRIQGLRDIVGISVEEMAKALDISEQEYREYEKGETDFSFSFLYTVANVLGINITDLI,soluble fraction (log2),-1.56
HMEDIEEVIVEIDTVLRTHFDRGRTEVLFAEIETAGGRPFMTYLALLFMAHRGSVRLQQDDLFGDLWVKDP,soluble fraction (log2),-0.959
HMEDISLYKILRAHSIDNLKLSQWIIDSLKTKFSTIGELQDAKIDDIRMYRIQDVRIEKIKNAVTEYMA,soluble fraction (log2),-0.701
HMEDISQHAVKKLVQEMVMAEDPRDPLSDQQIAENLSRLGLKVARRTVAKYRAMLGIQPSNRRRK,soluble fraction (log2),0.0963
HMEDIVDLVVEPEAAGRRLDAWLASRIERLSRSRIKALIESGHVAIGGATIVEAKKPVNSGDVVQLSVPEG,soluble fraction (log2),-0.121
HMEDKQRRMGELVALLNRAAYAYYTKDEPIMADVQYDRLYDELLSLEKETGVQMADSPTHRV,soluble fraction (log2),-0.871
HMEDLMEERKEHLLSVMKDPAYVPMKQKELAMLLNVPKGLREELNQVLDALVAEGSVVMSKRGKYTIPQ,soluble fraction (log2),0.189
HMEDNLVTYPNPTSDYIYVSKKVDLTVVNMLGDILIQKQNINVLDVTELTPGMYTIVIRYNNVTTNKRIIK,soluble fraction (log2),-0.335
HMEDPFATLGVHREASLDEIKRAYRRLAMFWHPDRNPEAVAGTEFKRVHAAYELLLDPQRLAEWQQAQAT,soluble fraction (log2),-0.424
HMEDPLAAQWKQGRKLFHDDYGYGIISKAFTAGDELVIMVQFENGGEKRFLPKYQAHNLLLVEQ,soluble fraction (log2),-1.3
HMEDQVITQFNMRLIRAVMPQGAPMIVVYEDPKDYPGLFVARLFDGRKSTHLIALADTLEDI,soluble fraction (log2),-0.351
HMEDVDTAALEKVIATAKGLNKNDYTATTWTTMQAALTNAEKALEAKKSQTSVDEAAKTLQAAIDGLKKAS,soluble fraction (log2),-0.103
HMEDVPYMIKLPSHHYLTKMVDGSTGWSLVQNSNTVVGSSKEELLKQYPEYEDFIVQEPLNV,soluble fraction (log2),-0.336
HMEDVSTLAVKQRIDDLVKQENPAKPLSDSDIVARLKTDGIYIARRTVAKYRMELNIPSSSARKRAQQFS,soluble fraction (log2),0.266
HMEDWTPERFVGAFVSGGPALRDEILLAATKDLSHAQATRLLKLAEARGLVHRSQPGPSERVRFVVARK,soluble fraction (log2),-0.0732
HMEDYTPLQELGLKARYIELLEKGGIFSVEDLVQKSVDDLKDIDGIGEKTAKEIWEIVDSMVDF,soluble fraction (log2),-0.308
HMEDYYKEDYYTEVLKIPKEYIKGFQYYLIEDAEFVNALNAKNKTMTSFLAKKLASDYIEIIHQEQ,soluble fraction (log2),-1.44
HMEEDDGVDFHERLTELNDEQVYYLINTEPAKVIALALDQLGQKRKINIMNRFNPDMKHSIIMELGKL,soluble fraction (log2),-0.666
HMEEDGAPLESREVLLDQAISQGKGTQWTIATETKLEDHIVSGAYSTDGKVTLAVFSPLGDGKYEFSSSVN,soluble fraction (log2),-0.172
HMEEDPIIIAQRFLNIFRQLHIFSEEKKESFNKMLLEQPAEIRGALRSLPGGGLLQDYIDDLESKA,soluble fraction (log2),-0.711
HMEEEEITIHIIGEVKYPGIVILKTGQRIIDAIDAAGGETEEADLNKINLAQLLSDGDKIYVPSINDN,soluble fraction (log2),-1.05
HMEEFAGYINGQPYYGPTHQHRGVKMVGAEHTQRPHPLVWDSVAKSLDNYDNRFQWVNGNLLQVV,soluble fraction (log2),0.3
HMEEFGRRLKERMIDKNMTEAELAQKTELWSSILTSYLKGERFPGYYTLLRIAEALDVSIDFLLGLRDEPE,soluble fraction (log2),-2.01
HMEEILLSVKADGTYWVDQKEVTLDEVGALLDKEPDRLLNIFMDEKVPVRHFINVVDIAKVKREGRFII,soluble fraction (log2),-1.74
HMEEIQLILAKNLKSIREKEKLSLEKVSQLTGVSKTMIGQIERGDSSPTLTTIWKIANGLKVSFTSLINNP,soluble fraction (log2),0.182
HMEEKKYEVGDVVSFNYLYKNSFAEGKVSSLIHSGTITRIIDGRPAPYLINRGTGWLSNDLILT,soluble fraction (log2),-0.179
HMEEKNNIIVSYIEDKISELEKASMYVPNENKEKLIMAFKNRNEDIDVIKTRIDTIFNNSVAAYKENME,soluble fraction (log2),-1.32
HMEEKTMNLPPSAKLVYKILSYEGNLTQKEIINMTYLPERTVRHALELLLGKRLITRQAYLNDARQSVYG,soluble fraction (log2),-0.265
HMEEKVEVPNLSGKTYQQAKALLESYGLVAAKGGEEESEEPVGKVSRWSSAGKSVKKGTTITVWISGGI,soluble fraction (log2),0.1
HMEEKWKENYEKIKLFISINNRYPSVYSEDKEEGLIGSFMSNQKRRKNKLSKEKMALFEALPNWIWE,soluble fraction (log2),-0.812
HMEELNFYPNPAYKYINLDYVGLKEIYTVLGKKLLETYDTRINISNLNSGIYLIKFKNQALRFVK,soluble fraction (log2),-0.32
HMEELVGFEEKVRSILTSPLSAKEIKEKTHIEIDTRKLSKMLSELSFIKTEKKNGKKIFRLVS,soluble fraction (log2),-0.0997
HMEEMADILKTRIDTLDLSTRTLNALTGANIRTVGGIARKKKEDLLELAGMGEKGIQEIKKVLGGFGITL,soluble fraction (log2),0.15
HMEEPEYELLRQAVLALPEKYRLPIHLYYYEEYSVREIAEILQRKESAVQTQLQRGREKIRRSLTEKGVS,soluble fraction (log2),-0.941
HMEEPLIISIDSNGAVYLEVDSFKDQSIEMSSLREIIEKIILANPDIQVVVRGDSEVKYEKVMDLMSILQS,soluble fraction (log2),-1.95
HMEEQGLPLVIISDGKVLAQNLTLRSLDRAWLQDQLTQHGHSKPEQVFLLTVDERGAVYYVPKE,soluble fraction (log2),-1.86
HMEEQQIQLIQMKMEKDHKYVGKKISELRIKNMLIVLIKRGDEDIIPRAEVKIKEGDILVLSAQSYEG,soluble fraction (log2),-0.29
HMEETAFEKLSPLQKLRALGKPLTMINMRDGSQIAGSVQRSDDKFLYLDTGDGIAKLPVEEILRRTPM,soluble fraction (log2),0.13
HMEETIVFGQQKAINALSSDAGLSSNELDSYLKKRYKRPLYQLSKSEGAELIQGFQDGSLSKASIMDYVS,soluble fraction (log2),0.346
HMEEVIEVEGKITAVLPSTMFRAELENGHQVLAHISGKLRKHFIKITVGDIVKMEMSTQDLQKARIV,soluble fraction (log2),-0.831
HMEEVRFPLKKEILLWALKEAQVDEDEVFRKFTNLEKWINGEKHPTFKQIESLANYLKIPFGYMFLEKPPI,soluble fraction (log2),-1.47
HMEEVVIPDLAGLTEEEATKVLMAKELKLKVSGSQHSDIEKGLIISQDPPAGEKGAKNSQVAVVTSSG,soluble fraction (log2),-0.000599
HMEFDFGAILSGNGGSELYSGYSAEQKAALVEAAKADGMDVEFGADGSTTFKDKDGSEVVQKADGTWTV,soluble fraction (log2),-0.0653
HMEFDVELTSFEEAKKLKVIKEVKDVTGLSLGEAKDLVMGAPKAIKTGVSKEEAEAIKTQIEAAGAVVTI,soluble fraction (log2),-0.699
HMEFDYIVKVPDVRNKKIEDAGKILIDLGLKYTTESDYITQDLKVIDQFPLPGTEVSKGSIIDIYLEEDFK,soluble fraction (log2),-0.446
HMEFEKYKYHYIFDDVLGLRIVWDRGKEHFSYFVNEELAEKSRKSDKDALEVMFYLEHKRWPEEGELENY,soluble fraction (log2),-1.07
HMEFEYTVVVPETRGKTIGEAGRILLDLELKYTSESMNIREDSKVIDQFPSPGTEVSKGSIIDLYLDE,soluble fraction (log2),-1.91
HMEFQISLAAARVNANMTQEDTARAMKVSKTTIVNWEKGKVIPGIPEVEMMSRLYGIPQDYIFLP,soluble fraction (log2),-0.796
HMEFSYLEEIGHEKGDLIKGLQLIQQKEGYVSDDAVRAVAENFGMSPAEVEGVLTFYAQFKR,soluble fraction (log2),-1
HMEGFKSVYFLTTPSGAEISDRSVGDIISKTPSLVSAQEGTEFEFNLKGYQPSFYMINKRSPDRVFVELIP,soluble fraction (log2),-0.575
HMEGLEKDDGGYYFEKDNGERARNEWVYVEYEGKGYWYYMTDYGYPLRSAITPDGYKVNSNGHWIDEGN,soluble fraction (log2),-1.12
HMEGLESVVPDLRGKSLKSAAIAAGLSGFALSPEGSGIVYKQSPAPGGRYLKGTLIAVWLRT,soluble fraction (log2),0.22
HMEGMQATVTQITDEGITVRYVMNGQMVTRTLTSDEVAFVNRGQAVSDLAGAYRVGQTVWIY,soluble fraction (log2),-0.179
HMEGNAFASTGDPEADILDITAVHPMRRDAVEELLARSGAEWSLVEGMLRDGKITMAPWEGEEFFIRS,soluble fraction (log2),-1.35
HMEGNWGLWAKVPNRFAALTTDKDSALRRFKSKEDGEAWMASHGLKPERFDVLEIPADYKPA,soluble fraction (log2),-0.0509
HMEGRHFRILYILLNNERVTAPELAEEFGVSVRTIYRDIDTMSAAGIPIYMQGGRKGGIYLLEGY,soluble fraction (log2),-1.61
HMEGSRASMDGQVPGKTSYLEWLARQPAQRQDQVLGAERGRLFRAGEIDLADMFTDKGEWISLERLKQLS,soluble fraction (log2),-0.284
HMEGVSNLIVSVTRVKVTVDLSQAKVYLSIFPSEQAAFYLNALQQNRFQLKHDLSQLLKNQLRRIPTLQF,soluble fraction (log2),-0.0019
HMEHDYGLSGREREVLELMVQGLVKKEIADRLALSYHTVDNHLRSIYAKLQVHTRGGAVAKALSEHLVPP,soluble fraction (log2),-0.483
HMEHGQWLSEAQGASLAADWLARRRGVLPLNARRHLSGLSDQIARQIEGGLSREAGLYTAHEMMESLDP,soluble fraction (log2),-0.217
HMEHNDPEVERTMFQGLEALKLQLFEKAFGHFSLLIKLAPDYAEAWNKRATVLYLMGRFKESESDVMRTLE,soluble fraction (log2),-0.0178
HMEHQLLHMEKTIFEEIADDYPQLNHTKIRNVLAAFLFTNDDVFKRIADLSGGERGRVSLAKLMLSDA,soluble fraction (log2),-0.816
HMEHTPYLTEREADVVRLLVSGLDTAQIAQRLGIKTATVTAHKKHIFLKIGVRNTTQLVAWALIR,soluble fraction (log2),-0.557
HMEIELHNLALNIKEFRKKNKLSQAELAEKLGVARTTIGYYERAEVEPNIYTLVQLSKLMNRSIDSLLGL,soluble fraction (log2),-0.0684
HMEIFYGDDRVYTVSLHGQNNFPFRKKTSDFDYGFEDGTGDEEYLRVLDVTLSRLENEQFDLLFFQAGV,soluble fraction (log2),-0.842
HMEIFYSARAWAKLNDLVATRTYLQHLGAIAGRIGRSEGLSPDRIPDGRDGAVNGWPLWVWDRAYAEVS,soluble fraction (log2),-0.245
